The supplement of paper PMC10567573

B1: HSP90AB1 (parent)
chain: QVANSAFVERVRKRGFEVVYMTEP

Variants of: B1
Test: protein stability index of a GFP-peptide fusion (GPS, HEK-293T) (PSI 1-6); higher = more stable
Conditions: c terminus: a fixed tail appended
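Note: lentivirally expressed fusions sorted by FACS into six bins by GFP to DsRed ratio, PSI derived from sequencing read proportions per bin multiplied by bin number.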

Protein stability index, by site and new letter:
V8: N 2.8, I 1.88, K 2.54, T 2.52, Q 2.2, Y 2.7, R 2.07, P 2.48, F 1.8, L 1.96, D 3.46, G 2.91, S 2.54, H 2.47, W 1.47, A 2.33, M 2.49, C 2.92
N4: L 1.69, W 1.94, E 2.81, K 1.96, F 2.16, H 2.6, R 2.18, S 2.21, Q 2.72, D 3.01, Y 1.72, T 1.78, I 2.64, P 2.03, A 2.02
K13: V 1.54, C 1.61, S 2.83, M 1.53, I 1.51, F 1.58, Q 2.2, G 1.34, D 2.67, P 2.63, Y 1.75, L 2.49, R 2.43, T 2.35, H 1.95, N 2.24, W 2.48, A 2.42
Q1: E 1.91, L 2.27, N 2.11, T 1.95, D 2.21, H 1.85, M 1.81, S 2.12, V 2.73, G 2.33, Y 3.79, R 1.71, C 1.57, A 2.29, W 1.46, K 2.17, I 1.7
V11: G 2.56, M 2.11, W 1.34, R 2.43, E 3.58, L 1.69, K 1.85, P 2.48, H 2.73, T 2.83, Y 2.17, Q 3.2, F 2.09, A 2.62, S 2.61, I 1.79
S5: N 2.26, H 2.29, E 2, Y 2.17, W 1.97, A 2.24, G 2.02, K 1.71, R 1.77, V 2.22, F 1.76, M 2.2, D 2.59, L 2.12, T 2.46, P 2.44
V2: G 2.59, T 2.41, A 2.87, R 2.6, H 2.49, C 1.74, M 2.18, D 3.15, I 2.52, Q 2.58, S 2.69, P 2.85, N 2.75, Y 2.3, L 2.01, F 2.47, W 1.94
A6: I 1.68, T 2.69, K 2.32, L 2.09, V 1.57, P 2.81, C 1.55, F 1.73, S 2.61, H 2.43, M 2.54, Y 1.55, E 2.86, W 1.55, G 2.19, R 2.71, D 2.67, N 2.11
R12: E 3.16, P 2.74, G 2.59, M 2.01, C 1.98, F 2.13, A 2.18, T 2.09, L 2.1, V 2.16, K 3.12, W 1.6, Q 2.35, S 2.87, D 3.5, H 2.53, N 2.63
A3: F 1.87, M 2.26, S 2.74, H 2.38, G 2.28, T 2.93, L 1.85, W 1.91, P 2.69, C 2.01, I 2.06, V 2.43, Y 2.35, E 2.69, D 2.11
